Measurements taken from patent publication US7005413 (Amgen, dated 2006).
Changes are numbered by the printed parent chain. In names and notes the source's numbering stands.

B1: muOPG [22-200] (receptor)
chain: ETLLPKYLHYDPETGHQLLCDKCAPGTYLKQHCTVRRKTLCVPCPDHSYTDSWHTSDECVYCSPVCKELQSVKQECNRTHNRVCECEEGRYLEIEFCLKHRSCPPGSGVVQAGTPERNTVCKKCPDGFFSGETSSKAPCIKHTNCSTFGLLLIQKGNATHDNCCSGNREATQKCGIDVT
notes: C-terminal truncation ending at threonine 200, expressed in 293 cells; also called CT 200
B2: muOPG [22-401] C195S (receptor)
chain: ETLLPKYLHYDPETGHQLLCDKCAPGTYLKQHCTVRRKTLCVPCPDHSYTDSWHTSDECVYCSPVCKELQSVKQECNRTHNRVCECEEGRYLEIEFCLKHRSCPPGSGVVQAGTPERNTVCKKCPDGFFSGETSSKAPCIKHTNCSTFGLLLIQKGNATHDNCCSGNREATQKSGIDVTLCEEAFFRFAVPTKIIPNWLSVLVDSLPGTKVNAESVERIKRRHSSQEQTFQLLKLWKHQNRDQEMVKKIIQDIDLCESSVQRHLGHSNLTTEQLLALMESLPGKKISPEEIERTRKTCKSSEQLLKLLSLWRIKNGDQDTLKGLMYALKHLKTSHFPKTVTHSLRKTMRFLHSFTMYRLYQKLFLEMIGNQVQSVKISCL
B3: muOPG [22-401] C400S (receptor)
chain: B2 chain with S174C, C379S
notes: Expressed in 293 cells from pcDNA3.1-muOPG
B4: muOPG [22-401] C277S (receptor)
chain: B2 chain with S174C, C256S
notes: as for B3
B5: muOPG [22-401] C202S (receptor)
chain: B2 chain with S174C, C181S
notes: as for B3
B6: muOPG [22-401] C319S (receptor)
chain: B2 chain with S174C, C298S
notes: as for B3
B7: huOPG [22-401] (receptor)
chain: ETFPPKYLHYDEETSHQLLCDKCPPGTYLKQHCTAKWKSVCAPCPDHYYTDSWHTSDECLYCSPVCKELQYVKQECNRTHNRVCECKEGRYLEIEFCLKHRSCPPGFGVVQAGTPERNTVCKRCPDGFFSNETSSKAPCRKHTNCSVFGLLLTQKGNATHDNICSGNSESTQKCGIDVTLCEEAFFRFAVPTKFTPNWLSVLVDNLPGTKVNAESVERIKRQHSSQEQTFQLLKLWKHQNKAQDIVKKIIQDIDLCENSVQRHIGHANLTFEQLRSLMESLPGKKVGAEDIEKTIKACKPSDQILKLLSLWRIKNGDQDTLKGLMHALKHSKTYHFPKTVTQSLKKTIRFLHSFTMYKLYQKLFLEMIGNQVQSVKISCL
notes: Recombinant polypeptide from CHO cells
B8: muOPG [22-212] (receptor)
chain: ETLLPKYLHYDPETGHQLLCDKCAPGTYLKQHCTVRRKTLCVPCPDHSYTDSWHTSDECVYCSPVCKELQSVKQECNRTHNRVCECEEGRYLEIEFCLKHRSCPPGSGVVQAGTPERNTVCKKCPDGFFSGETSSKAPCIKHTNCSTFGLLLIQKGNATHDNCCSGNREATQKCGIDVTLCEEAFFRFAVP
notes: also called CT212
B9: Rat OPG [22-401] produced in transgenic mice (receptor)
chain: ETFPPKYLHYDPETGRQLLCDKCAPGTYLKQHCTVRRKTLCVPCPDYSYTDSWHTSDECVYCSPVCKELQTVKQECNRTHNRVCECEEGRYLELEFCLKHRSCPPGLGVLQAGTPERNTVCKRCPDGFFSGETSSKAPCRKHTNCSSLGLLLIQKGNATHDNVCSGNREATQNCEIDVTLCEEAFFRFAVPTKIIPNWLSVLVDSLPGTKVNAESVERIKRRHSSQEQTFQLLKLWKHQNRDQEMVKKIIQDIDLCESSVQRHIGHANLTTEQLRILMESLPGKKISPDEIERTRKTCKPSEQLLKLLSLWRIKNGDQDTLKGLMYALKHLKAYHFPKTVTHSLRKTIRFLHSFTMYRLYQKLFLEMIGNQVQSVKISCL
notes: Expressed from the rat cDNA under a hepatocyte control element in transgenic mice; Analysed in liver extracts and serum; also called HE-OPG transgene product

Assays:
[1] = molecular target: the molecule itself; assay: homodimerization; non-reducing SDS-PAGE and western blot with anti-OPG antibodies
Experimental: Each resulting muOPG-CT plasmid containing the appropriate truncation was then transfected into human 293 cells, the mutant OPG-Fc fusion protein purified from conditioned media as described above. The biological activity of each protein was assessed the in vitro osteoclast forming assay described in example 11. The conditioned medias were also analysed by non-reducing SDS-PAGE and western blotting using anti-OPG antibodies.

[2] = molecular target: the molecule itself; assay: homodimerization; non-reducing SDS-PAGE and western blot; the number is the monomer share
Experimental: The biological activity of each protein was assessed the in vitro osteoclast forming assay described in example 11. Conditioned media from each transfectant was analysed by non-reducing SDS-PAGE and western blotting with anti-OPG antibodies.

[3] = molecular target: the molecule itself; assay: self-association; nonreducing SDS gels

Row | Protein | percent monomeric [2] [%] | also measured
1 | B1 | – | binding result [1]: no binding
2 | B2 | > 90 | –
3 | B3 | > 90 | –
4 | B4 | > 90 | –
5 | B5 | > 90 | –
6 | B6 | > 90 | –
7 | B7 | – | binding result [3]: binds
8 | B8 | – | binding result [1]: no binding
9 | B9 | – | binding result [3]: binds
